# From FireProtDB (doi:10.1016/j.csbj.2015.03.010)
# Conditions: Aspergillus aculeatus; pH 4.5; Thermal; DSC; sodium acetate buffer 50 mM; transition: 2; reversible: no; whole UniProt chain shown
protein,measurement,value
"Arabinogalactan endo-beta-1,4-galactanase wild type, P48842 (protein) MFASLLLAALPLLTHAALTYRGADISSLLLLEDEGYSYKNLNGQTQALETILADAGINSIRQRVWVNPSDGSYDLDYNLELAKRVKAAGMSLYLDLHLSDTWADPSDQTTPSGWSTTDLGTLKWQLYNYTLEVCNTFAENDIDIEIISIGNEIRAGLLWPLGETSSYSNIGALLHSGAWGVKDSNLATTPKIMIHLDDGWSWDQQNYFYETVLATGELLSTDFDYFGVSYYPFYSASATLASLKTSLANLQSTYDKPVVVVETNWPVSCPNPAYAFPSDLSSIPFSVAGQQEFLEKLAAVVEATTDGLGVYYWEPAWIGNAGLGSSCADNLMVDYTTDEVYESIETLGEL",Tm,60.9 °C
